From PMC3737171, “Genetic Selection for Constitutively Trimerized Human HSF1 Mutants Identifies a Role for Coiled-Coil Motifs in DNA Binding” (G3: Genes|Genomes|Genetics, 2013)
Positions count from the first letter of the chain named. Numbers in names are those of the source.

B1: human HSF1 M161I, expressed in yeast (natural protein, UniProt Q00613 1-529, looked up)
chain: MDLPVGPGAAGPSNVPAFLTKLWTLVSDPDTDALICWSPSGNSFHVFDQGQFAKEVLPKYFKHNNMASFVRQLNMYGFRKVVHIEQGGLVKPERDDTEFQHPCFLRGQEQLLENIKRKVTSVSTLKSEDIKIRQDSVTKLLTDVQLMKGKQECMDSKLLAIKHENEALWREVASLRQKHAQQQKVVNKLIQFLISLVQSNRILGVKRKIPLMLNDSGSAHSMPKYSRQFSLEHVHGSGPYSAPSPAYSSSSLYAPDAVASSGPIISDITELAPASPMASPGGSIDERPLSSSPLVRVKEEPPSPPQSPRVEEASPGRPSSVDTLLSPTALIDSILRESEPAPASVTALTDARGHTDTEGRPPSPPPTSTPEKCLSVACLDKNELSDHLDAMDSNLDNLQTMLSSHGFSVDTSALLDLFSPSVTVPDMSLPDLDSSLASIQELLSPQEPPRPPEAENSSPDSGKQLVHYTAQPLFLLDPGSVDTGSNDLPVLFELGEGSYFSEGDGFAEDPTISLLTGSEPPKAKDPTVS
notes: human heat shock transcription factor 1 (HSF1) with M161I in LZ1-3; Found by random mutagenesis in E. coli XL-1 Red; also called M161I mutant; source: S. cerevisiae PS145, mutant of plasmid pRS423GPD-hHSF1, in total protein extract
B2: human HSF1 K178E, expressed in yeast (natural protein, UniProt Q00613 1-529, looked up)
chain: B1 chain with I161M, K178E
notes: human heat shock transcription factor 1 (HSF1) with K178E between LZ1/2 and LZ3; Found by random mutagenesis in E. coli XL-1 Red; also called K178E mutant; source: S. cerevisiae PS145, mutant of plasmid pRS423GPD-hHSF1, in total protein extract
B3: human HSF1 L402P, expressed in yeast (natural protein, UniProt Q00613 1-529, looked up)
chain: B1 chain with I161M, L402P
notes: human heat shock transcription factor 1 (HSF1) with L402P in LZ4; Found by random mutagenesis in E. coli XL-1 Red; also called L402P mutant; source: S. cerevisiae PS145, mutant of plasmid pRS423GPD-hHSF1, in total protein extract
B4: human HSF1 L189P, expressed in yeast (natural protein, UniProt Q00613 1-529, looked up)
chain: B1 chain with I161M, L189P
notes: human heat shock transcription factor 1 (HSF1) with L189P in LZ3; Found by random mutagenesis in E. coli XL-1 Red; also called L189P HSF1 mutant; source: S. cerevisiae PS145, mutant of plasmid pRS423GPD-hHSF1, in total protein extract
B5: human HSF1 H179Y, expressed in yeast (natural protein, UniProt Q00613 1-529, looked up)
chain: B1 chain with I161M, H179Y
notes: human heat shock transcription factor 1 (HSF1) with H179Y between LZ1/2 and LZ3; Found by random mutagenesis in E. coli XL-1 Red; also called H179Y mutant; source: S. cerevisiae PS145, mutant of plasmid pRS423GPD-hHSF1, in total protein extract
B6: human HSF1 L189P, expressed in hsf1-/- mouse embryonic fibroblasts (natural protein, UniProt Q00613 1-529, looked up)
chain: B1 chain with I161M, L189P
notes: human heat shock transcription factor 1 (HSF1) with L189P in LZ3; also called L189P HSF1 mutant; source: hsf1-/- MEFs, transfected, in protein extract
B7: human HSF1 M161I, expressed in hsf1-/- mouse embryonic fibroblasts (natural protein, UniProt Q00613 1-529, looked up)
chain: B1 chain
notes: human heat shock transcription factor 1 (HSF1) with M161I in LZ1-3; also called M161I mutant; source: hsf1-/- MEFs, transfected, in protein extract
B8: human HSF1 H179Y, expressed in hsf1-/- mouse embryonic fibroblasts (natural protein, UniProt Q00613 1-529, looked up)
chain: B1 chain with I161M, H179Y
notes: human heat shock transcription factor 1 (HSF1) with H179Y between LZ1/2 and LZ3; also called H179Y mutant; source: hsf1-/- MEFs, transfected, in protein extract
B9: human HSF1 L402P, expressed in hsf1-/- mouse embryonic fibroblasts (natural protein, UniProt Q00613 1-529, looked up)
chain: B1 chain with I161M, L402P
notes: human heat shock transcription factor 1 (HSF1) with L402P in LZ4; also called L402P mutant; source: hsf1-/- MEFs, transfected, in protein extract
B10: human HSF1 K178E, expressed in hsf1-/- mouse embryonic fibroblasts (natural protein, UniProt Q00613 1-529, looked up)
chain: B1 chain with I161M, K178E
notes: human heat shock transcription factor 1 (HSF1) with K178E between LZ1/2 and LZ3; also called K178E mutant; source: hsf1-/- MEFs, transfected, in protein extract

Target: wild-type human HSF1, expressed in hsf1-/- mouse embryonic fibroblasts (human) (UniProt Q00613)
Assay: cross-linking; EGS cross-linking of extracts of transfected hsf1-/- MEFs, without stress and after heat stress; immunoblot for HSF1

| Molecule | stoichiometry N |
| --- | --- |
| wild-type human HSF1, expressed in hsf1-/- mouse embryonic fibroblasts (from UniProt Q00613 1-529) (natural protein) | 3 |

Target: the molecule itself
Assay: cross-linking; EGS cross-linking of total protein extracts of yeast PS145 grown on galactose medium; SDS-PAGE and immunoblot with an HSF1-specific antibody

| Molecule | stoichiometry N |
| --- | --- |
| B1 | 3 |
| B2 | 3 |
| B3 | 3 |
| B4 | 3 |
| B5 | 3 |

Target: the molecule itself
Assay: cross-linking; EGS cross-linking of extracts of transfected hsf1-/- MEFs, without stress and after heat stress; immunoblot for HSF1

| Molecule | stoichiometry N |
| --- | --- |
| B6 | 3 |
| B7 | 3 |
| B8 | 3 |
| B9 | 3 |
| B10 | 3 |
